Data taken from patent US6489125.

Assays:
[1] = target: RyR2 channels from failing hearts; assay: co-immunoprecipitation, immunoblot densitometry (FIG. 4B)
[2] = target: RyR2 channels from failing hearts; assay: cell-based or functional assay
[3] = system: type 2 ryanodine receptor (RyR2), native channel from cardiac sarcoplasmic reticulum

| decrease in the amount of FKBP12.6 bound (failing against normal hearts) [1] [%] | open probability (Po) at 50 nM cis (cytosolic) Ca^2+ [2] | Substance | phosphorylation of RyR2 on addition of cAMP without exogenous PKA [3] |
| --- | --- | --- | --- |
| 60 | 0.24 | FK-506 binding protein FKBP12.6, native from cardiac SR (from UniProt P68106 1-108) |  |
|  |  | protein kinase A (PKA) catalytic subunit, endogenous in cardiac SR | Addition of phosphorylation buffer including cAMP without exogenous PKA also resulted in phosphorylation of RyR2 that was inhibited by PKI |
